Test results published in paper PMC4706430.

Biological target: Elastase (human neutrophil elastase) (human) (UniProt P08246)
Sequence (P08246 30-267): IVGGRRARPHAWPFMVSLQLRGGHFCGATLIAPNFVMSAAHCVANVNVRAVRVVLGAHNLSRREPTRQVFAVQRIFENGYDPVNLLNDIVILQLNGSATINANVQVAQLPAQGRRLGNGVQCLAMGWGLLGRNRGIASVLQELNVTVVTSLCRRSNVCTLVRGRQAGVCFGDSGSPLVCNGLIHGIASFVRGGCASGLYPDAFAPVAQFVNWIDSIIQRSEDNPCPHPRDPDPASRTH

- cleavage of TFPI (1 μg) by elastase (0.8 μg/mL) with Boophilin 0-3 μM, SDS-PAGE (Fig 4D): 20%
Substance: Boophilin (natural protein)
